Experimental data taken from patent US8852550B2, “Chelator conjugates” (GE Healthcare Limited, priority 2001, dated 2014).
Ends that are not written are not given here. Compound 1 = not defined here

Tests used:
[1] = 99mTc labelling of Compound 9, radiochemical purity by ITLC and HPLC (Example 13); format: physicochemical
Method: Compound 9 was prepared in an analogous manner to Examples 7 and 8, and labelled with ^99mTc in solution (Preparation 1) or via a freeze-dried kit according to Example 10 (Preparation 2).
For Preparation 1, 100 μg of Compound 9 was dissolved in 1 ml of pH 8.5 borate buffer. This was transferred to a P6 vial and sealed. 1 ml ^99mTc-pertechnetate in saline (1.0 GBq/ml, from an Amertec II generator) was added at room temperature, together with 0.1 ml SnCl2 solution (10 mg SnCl2 in 100 ml N2 purged saline). The activity was measured using an ion chamber. The RCP was measured using ITLC and HPLC.

[2] = 99mTc labelling of Compound 5, radiochemical purity by ITLC and HPLC (Example 11); format: physicochemical
Method: A freeze-dried formulation containing: • 50 μg PABA (para-aminobenzoic acid), • 30 μg SnCl2, • 90 μg MDP (methylenediphosphonic acid), • 1.32 mg NaHCO3, • 98 μg Na2CO3, • 4 mg NaOAc, was sealed under nitrogen gas in a 10 ml glass vial. The vial was removed from freezer storage and left at room temperature for 15 minutes, and was then reconstituted with 100 μl of a solution containing Compound 5, ie. the peptide-chelator conjugate Ac-Asn-Gln-Glu-Gln-Val-Ser-Pro-(I-Tyr)-Thr-Leu-Leu-Lys-Gly-[Compound 1] (2 mg in 2 ml water) and Xml of ^99mTc-pertechnetate in saline, with a radioactive concentration of 0.5 GBq/ml, from an Amertec II ^99mTc generator at room temperature. The activity was measured using an ion chamber. The RCP was measured using ITLC and HPLC. The results are shown in Table 3 for different values of X: […]

[3] = Prep 1, X 2 ml, 1.04 GBq, 255 min post-reconstitution
[4] = Prep 2, X 2 ml, 1 GBq, 15 min post-reconstitution
[5] = Prep 3, X 5 ml, 2.47 GBq, 15 min post-reconstitution

| Substance | RCP by ITLC ([1]; Preparation 1: in solution, pH 8.5 borate buffer, room temperature) [%] | RCP by HPLC ([1]; Preparation 2: freeze-dried kit according to Example 10) [%] | RCP % (ITLC) ([2]; Prep 1, X 2 ml, 1.04 GBq, 15 min post-reconstitution) [%] | RCP % (HPLC) [2, 3] [%] | RCP % (ITLC) [2, 3] [%] | RCP % (HPLC) [2, 4] [%] | RCP % (ITLC) [2, 4] [%] | RCP % (HPLC) ([2]; Prep 2, X 2 ml, 1 GBq, 60 min post-reconstitution) [%] | RCP % (HPLC) [2, 5] [%] | RCP % (ITLC) [2, 5] [%] | RCP % (HPLC) ([2]; Prep 3, X 5 ml, 2.47 GBq, 150 min post-reconstitution) [%] | RCP % (ITLC) ([2]; Prep 4, X 2 ml, 1.02 GBq, 15 min post-reconstitution) [%] | RCP % (HPLC) ([2]; Prep 4, X 2 ml, 1.02 GBq, 140 min post-reconstitution) [%] |
| --- | --- | --- | --- | --- | --- | --- | --- | --- | --- | --- | --- | --- | --- |
| [Compound 1]-Cys-Cys-Glu-Leu-Cys-Cys-Asn-Pro-Ala-Cys-Ala-Cys-Tyr-OH ({Compound 1}-CCELCCNPACACY-OH; reading uncertain; also: cyclic, bridges not given here, printed as [Compound 1]-Cys-Cys-Glu-Leu-Cys-Cys-Asn-Pro-Ala-Cys-Ala-Cys-Tyr-OH) [Compound 9] | 96 | 82 | – | – | – | – | – | – | – | – | – | – | – |
| Ac-Asn-Gln-Glu-Gln-Val-Ser-Pro-(I-Tyr)-Thr-Leu-Leu-Lys-Gly-[Compound 1] (chain 1 Ac-NQEQVSP; chain 2 TLLKG-{Compound 1}; not fully specified (C-terminus); reading uncertain; also: chains 1 and 2 joined in one chain through I-Tyr) [Compound 5, peptide-chelator conjugate of Compound 1 with thrombus-targeting peptide] | – | – | 99.4 | 86.8 | 99.2 | 83.0 | 99.3 | 85.2 | 86.5 | 99.3 | 87.6 | 99.1 | 86.6 |
